In patent US20230192890A1:

Experiments:
[1] = target: full-length recombinant mouse PAD4 (mouse) (UniProt Q9Z183); assay: ELISA, mouse PAD4 on plate, antibody 0.0009766 ug/mL
[2] = target: full-length recombinant mouse PAD4 (mouse) (UniProt Q9Z183); assay: ELISA, mouse PAD4 on plate, antibody 0.0002441 ug/mL
[3] = target: full-length recombinant mouse PAD4 (mouse) (UniProt Q9Z183); assay: ELISA, mouse PAD4 on plate, antibody 1 ug/mL
[4] = target: full-length recombinant mouse PAD4 (mouse) (UniProt Q9Z183); assay: ELISA, mouse PAD4 on plate, antibody 0.0625 ug/mL
[5] = target: full-length recombinant mouse PAD4 (mouse) (UniProt Q9Z183); assay: ELISA, mouse PAD4 on plate, antibody 6.104E-05 ug/mL
[6] = target: full-length recombinant mouse PAD4 (mouse) (UniProt Q9Z183); assay: ELISA, mouse PAD4 on plate, antibody 0.0039063 ug/mL
[7] = target: T1, Ala mutant SEQ ID NO: 30 (human); assay: ELISA, peptide on plate (10 ug/mL)
T1 sequence (peptide): EENADDQWMQDEMEIGY

[8] = target: T2, Ala mutant SEQ ID NO: 40 (human); assay: ELISA, peptide on plate (10 ug/mL)
T2 sequence (peptide): EENMDDQWMQDEMAIGY

[9] = target: T3, TA0096 (peptide antigen corresponding to positions 340 to 356 of PAD4) (human); assay: ELISA, peptide on plate (10 ug/mL)
T3 sequence (peptide): EENMDDQWMQDEMEIGY

[10] = target: T4, Ala mutant SEQ ID NO: 33 (human); assay: ELISA, peptide on plate (10 ug/mL)
T4 sequence (peptide): EENMDDAWMQDEMEIGY

[11] = target: T5, Ala mutant SEQ ID NO: 41 (human); assay: ELISA, peptide on plate (10 ug/mL)
T5 sequence (peptide): EENMDDQWMQDEMEAGY

[12] = target: T6, Ala mutant SEQ ID NO: 36 (human); assay: ELISA, peptide on plate (10 ug/mL)
T6 sequence (peptide): EENMDDQWMADEMEIGY

[13] = target: T7, Ala mutant SEQ ID NO: 38 (human); assay: ELISA, peptide on plate (10 ug/mL)
T7 sequence (peptide): EENMDDQWMQDAMEIGY

[14] = target: T8, Ala mutant SEQ ID NO: 39 (human); assay: ELISA, peptide on plate (10 ug/mL)
T8 sequence (peptide): EENMDDQWMQDEAEIGY

[15] = target: T9, Ala mutant having 3-amino acid substitution, SEQ ID NO: 47 (human); assay: ELISA, peptide on plate (10 ug/mL)
T9 sequence (peptide): EENMDDQWMAAAMEIGY

[16] = target: T10, Ala mutant SEQ ID NO: 31 (human); assay: ELISA, peptide on plate (10 ug/mL)
T10 sequence (peptide): EENMADQWMQDEMEIGY

[17] = target: T11, Ala mutant having 3-amino acid substitution, SEQ ID NO: 44 (human); assay: ELISA, peptide on plate (10 ug/mL)
T11 sequence (peptide): AAAMDDQWMQDEMEIGY

[18] = target: T12, Ala mutant SEQ ID NO: 43 (human); assay: ELISA, peptide on plate (10 ug/mL)
T12 sequence (peptide): EENMDDQWMQDEMEIGA

[19] = target: T13, Ala mutant SEQ ID NO: 37 (human); assay: ELISA, peptide on plate (10 ug/mL)
T13 sequence (peptide): EENMDDQWMQAEMEIGY

[20] = target: T14, Ala mutant SEQ ID NO: 27 (human); assay: ELISA, peptide on plate (10 ug/mL)
T14 sequence (peptide): AENMDDQWMQDEMEIGY

[21] = target: T15, Ala mutant having 3-amino acid substitution, SEQ ID NO: 46 (human); assay: ELISA, peptide on plate (10 ug/mL)
T15 sequence (peptide): EENMDDAAAQDEMEIGY

[22] = target: T16, Ala mutant having 3-amino acid substitution, SEQ ID NO: 49 (human); assay: ELISA, peptide on plate (10 ug/mL)
T16 sequence (peptide): EENMDDQWMQDEMEIAA

[23] = target: T17, Ala mutant having 3-amino acid substitution, SEQ ID NO: 48 (human); assay: ELISA, peptide on plate (10 ug/mL)
T17 sequence (peptide): EENMDDQWMQDEAAAGY

[24] = target: T18, Ala mutant SEQ ID NO: 29 (human); assay: ELISA, peptide on plate (10 ug/mL)
T18 sequence (peptide): EEAMDDQWMQDEMEIGY

[25] = target: T19, Ala mutant SEQ ID NO: 28 (human); assay: ELISA, peptide on plate (10 ug/mL)
T19 sequence (peptide): EANMDDQWMQDEMEIGY

[26] = target: T20, Ala mutant SEQ ID NO: 42 (human); assay: ELISA, peptide on plate (10 ug/mL)
T20 sequence (peptide): EENMDDQWMQDEMEIAY

[27] = target: full-length recombinant mouse PAD4 (mouse) (UniProt Q9Z183); assay: ELISA, mouse PAD4 on plate, antibody 0.015625 ug/mL
[28] = target: full-length recombinant mouse PAD4 (mouse) (UniProt Q9Z183); assay: ELISA, mouse PAD4 on plate, antibody 0.25 ug/mL

full-length recombinant mouse PAD4 (mouse), sequence (Q9Z183 whole entry): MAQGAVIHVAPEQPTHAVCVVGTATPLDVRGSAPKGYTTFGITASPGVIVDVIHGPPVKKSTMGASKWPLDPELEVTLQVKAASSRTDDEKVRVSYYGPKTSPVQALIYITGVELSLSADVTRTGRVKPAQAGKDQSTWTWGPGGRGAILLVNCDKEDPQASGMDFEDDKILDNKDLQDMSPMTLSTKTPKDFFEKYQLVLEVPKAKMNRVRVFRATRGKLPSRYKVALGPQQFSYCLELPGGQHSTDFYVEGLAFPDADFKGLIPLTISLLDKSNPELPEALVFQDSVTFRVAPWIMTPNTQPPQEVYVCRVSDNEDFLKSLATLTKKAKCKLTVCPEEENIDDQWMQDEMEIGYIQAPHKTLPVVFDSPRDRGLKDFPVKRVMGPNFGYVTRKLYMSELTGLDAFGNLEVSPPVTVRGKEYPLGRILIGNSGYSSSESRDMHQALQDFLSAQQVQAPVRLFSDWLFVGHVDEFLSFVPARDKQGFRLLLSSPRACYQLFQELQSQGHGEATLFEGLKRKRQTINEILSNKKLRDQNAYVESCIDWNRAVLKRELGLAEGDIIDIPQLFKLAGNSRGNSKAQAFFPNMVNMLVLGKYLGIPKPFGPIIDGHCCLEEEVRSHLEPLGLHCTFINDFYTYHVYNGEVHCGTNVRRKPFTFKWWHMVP

- absorbance 490 nm/630 nm [1]: 0.542 OD
- absorbance 490 nm/630 nm [2]: 0.181 OD
- absorbance 490 nm/630 nm [3]: 2.3 OD
- absorbance 490 nm/630 nm [4]: 2.24 OD
- absorbance 490 nm/630 nm [5]: 0.079 OD
- absorbance 490 nm/630 nm [6]: 1.39 OD
- absorbance 490 nm/630 nm [7]: 2.03 OD
- absorbance 490 nm/630 nm [8]: 1.88 OD
- absorbance 490 nm/630 nm [9]: 1.85 OD
- absorbance 490 nm/630 nm [10]: 1.98 OD
- absorbance 490 nm/630 nm [11]: 1.89 OD
- absorbance 490 nm/630 nm [12]: 1.87 OD
- absorbance 490 nm/630 nm [13]: 1.96 OD
- absorbance 490 nm/630 nm [14]: 1.87 OD
- absorbance 490 nm/630 nm [15]: 1.85 OD
- absorbance 490 nm/630 nm [16]: 1.48 OD
- absorbance 490 nm/630 nm [17]: 1.92 OD
- absorbance 490 nm/630 nm [18]: 1.88 OD
- absorbance 490 nm/630 nm [19]: 1.88 OD
- absorbance 490 nm/630 nm [20]: 1.93 OD
- absorbance 490 nm/630 nm [21]: 0.131 OD
- absorbance 490 nm/630 nm [22]: 1.92 OD
- absorbance 490 nm/630 nm [23]: 1.89 OD
- absorbance 490 nm/630 nm [24]: 1.94 OD
- absorbance 490 nm/630 nm [25]: 1.96 OD
- absorbance 490 nm/630 nm [26]: 1.85 OD
- absorbance 490 nm/630 nm [27]: 2.21 OD
- absorbance 490 nm/630 nm [28]: 2.25 OD
B1: G9 (antibody, IgG1, V domains shown)
VH: AVTLDESGGGLQTPGGALSLVCKASGFTFSTYAMGWMRQAPGKGLEYVAAIRNDGSWTGYGAAVKGRATILRDNGQSTVRLQLSNLRAEDTGTYYCAKYTGSSGGSIGAWGHGTEVIVS
VL: AVTQPASVSANLGGTVEITCSGGGRYYYGWYQQKSPGSAPVTVIYANDKRPSDIPSRFSGSKSGSTGTLTITGVQAEDEAVYFCGSAETSSYVFGAGTTLTVL
